# Measured values from patent US20060134087A1, “ITI-D1 Kunitz domain mutants as hNE inhibitors” (Dyax Corp., published 2006).
# Changes are numbered by the printed parent chain.
# B1: EPI-HNE-3 (designed binder)
# chain: AACNLPIVRGPCIAFFPRWAFDAVKGKCVLFPYGGCQGNGNKFYSEKECREYCGVP
# B2: AMINO1 display phage (designed binder)
# chain: KEDFCQLGYSAGPCVAMFPRYFYNGTSMACETFQYGGCMGNGNNFVTEKDCLQTCRGA
# B3: MA-ITI-D1E7 display phage (designed binder)
# chain: B2 chain with F4S
# B4: AMINO2 display phage (designed binder)
# chain: B2 chain with E2P, F4S
# Key:
# [1] = biological target: T1, Human Neutrophil Elastase (human, UniProt P08246); test: enzyme inhibition assay
# Experimental: (§1) Inhibition constants for the proteins reacting with hNE (Kᵢ) were determined using RT measurements of hydrolysis of a fluorogenic substrate (N-methoxysuccinyl-Ala-Ala-Pro-Val-7-amino-4-methylcoumarin, Sigma M-9771) by hNE. […] The reactions were incubated at RT for 30 minutes. At the end of the incubation period, the fluorogenic substrate was added at a concentration of 25 μM and the time course for increase in fluorescence at 470 nm (excitation at 380 nm) due to enzymatic substrate cleavage was recorded using a spectrofluorimeter (Perkin-Elmer 650-15) and strip chart recorder. […] Kᵢ is related to Kₐₚₚₐᵣₑₙₜ by Kᵢ=Kₐₚₚₐᵣₑₙₜ×(1/(1+(S₀/Kₘ))). The correction is small compared to the possible errors in Kₐₚₚₐᵣₑₙₜ. Rates of enzymatic substrate cleavage were determined from the linear slopes of the recorded increases in fluorescence.
# (§2) We recorded data used to determine Kᵢ for EPI-HNE-2 and EPI-HNE-3 reacting with hNE. Data obtained as described above are recorded as percent residual activity plotted as a function of added inhibitor. […] From the data, Kᵢ values for EPI-HNE-2 and for EPI-HNE-3 reacting with hNE at RT were calculated to be 4.8 pM and 6.2 pM, respectively.
# [2] = biological target: T1, Human Neutrophil Elastase; test: calculated by the filing from koff = KD × kon
# From the text: […] […] B. Specificity.
# [3] = biological target: T1, Human Neutrophil Elastase; test: inhibition of hNE hydrolysis of a fluorogenic substrate, [hNE] = 8.47 × 10^-10 molar
# Experimental: as §1, §2
# [4] = biological target: T1, Human Neutrophil Elastase; test: hNE inhibition assay of EPI-HNE-3 stored in unbuffered water at 4° C. for five months
# Human Urine Urokinase = Human Urine Urokinase (human, UniProt P00749); test: enzyme inhibition assay; limit on the assumption of less than 10% inhibition at the highest concentration tested
# Human Serum Kallikrein = Human Serum Kallikrein (human, UniProt P03952); test: as above
# Human Plasma Factor Xa = Human Plasma Factor Xa (human, UniProt P00742); test: as above
# Human Serum Thrombin = Human Serum Thrombin (human, UniProt P00734); test: as above
# Human Serum Plasmin = Human Serum Plasmin (human, UniProt P00747); test: as above
# [5] = biological target: T1, Human Neutrophil Elastase; test: progressive inhibition of hNE substrate hydrolysis after addition of inhibitor
# Experimental: The kinetic on-rates for the inhibitors reacting with hNE (kₒₙ) were determined from measurements of progressive inhibition of substrate hydrolytic activity by hNE following addition of inhibitor. For these experiments, a known concentration of inhibitor was added to a solution of hNE (0.847 nM) and substrate (25 μM) in 2 ml of reaction buffer in a plastic fluorescence cuvette. The change in fluorescence was recorded continuously following addition of the inhibitor. […] The enzymatic rate at selected times following addition of the inhibitor was determined from the slope of the tangent to the fluorescence time course at that time.
# The kinetic constant kₒₙ for EPI-HNE-2 reacting with hNE was determined as follows. EPI-HNE-2 at 1.3 nM was added to buffer containing 0.867 nM hNE (I:E=1.5:1) at time 0.
# [6] = biological target: Human Pancreatic Chymotrypsin (human, UniProt P17538); test: enzyme inhibition assay; said to be probably not specific
# [7] = biological target: T1, Human Neutrophil Elastase; test: pH elution of display phage from hNE beads
# [8] = biological target: T1, Human Neutrophil Elastase; test: pH elution of display phage from hNE beads, extended protocol
# From the text: (§3) Total pfu applied to the beads are in column two. The fractions of this input pfu recovered in each pH fraction of the abbreviated pH elution protocol (pH 7.0, pH 3.5, and pH 2.0) are in the next three columns. For data obtained using the extended pH elution protocol, the pH 3.5 listing represents the sum of the fractions of input recovered in the pH 6.0, pH 5.5, pH 5.0, pH 4.5, pH 4.0, and pH 3.5 elution samples. The pH 2.0 listing is the sum of the fractions of input obtained from the pH 3.0, pH 2.5, and pH 2.0 elution samples. The total fraction of input pfu obtained throughout the pH elution protocol is in the sixth column. The final column of the table lists the total fraction of input pfu recovered, normalized to the value obtained for MA-BITI-E7-141 phage.
# [9] = biological target: T1, Human Neutrophil Elastase; test: display phage on hNE beads, pH elution
# Experimental: (§4) To test if ITI-D1E7-display phage bind hNE beads, pH elution profiles were measured. Aliquots of EpiNE-7, MA-ITI-D1, and MA-ITI-D1E7 display phage were incubated with hNE beads for three hours at room temperature (RT). The beads were washed and phage were eluted as described in U.S. Pat. No. 5,223,409, except that only three pH elutions were performed.
# [10] = biological target: T1, Human Neutrophil Elastase; test: display phage eluted from hNE beads, normalized to MA-EpiNE7 in a concurrent elution
# [11] = biological target: T1, Human Neutrophil Elastase; test: abbreviated fractionation of display phage on hNE beads
# Experimental: as §4
# [12] = biological target: T1, Human Neutrophil Elastase; test: pH elution of display phage from hNE beads, abbreviated protocol
# From the text: as §3
binder,measurement,setting,value
B1,Ki,[1],6 pM
same,koff,[2],5e-05 s⁻¹
same,Kd,[3],6.2 pM
same,Ki,[4],~0.012 nM
same,Ki,Human Urine Urokinase,> 100 µM
same,Ki,Human Serum Kallikrein,> 100 µM
same,Ki,Human Plasma Factor Xa,> 100 µM
same,Ki,Human Serum Thrombin,> 100 µM
same,Ki,Human Serum Plasmin,> 100 µM
same,kon,[5],8e+06 M⁻¹ s⁻¹
same,Ki,[6],~30 µM
B2,fold reduction of binding against parental MA-BITI-E7-141,[7],≥ 10 fold
same,Fraction of Input recovered at pH2.0,[8],3.5e-05 fraction of input
same,Fraction of Input recovered at pH3.5,[8],0.00023 fraction of input
same,Fraction of Input recovered at pH7.0,[8],2.4e-05 fraction of input
same,Recovery Relative to BITI-E7-141,[8],0.11 ratio
same,"Recovery, Total fraction of input",[8],0.00029 fraction of input
B3,fold less total fraction eluted than EpiNE-7 display phage,[9],~40 fold
same,Normalized fraction of input (relative to recovered MA-EpiNE7),[10],0.027 ratio
same,fraction of input eluted at pH 3.5,[11],8e-05 fraction of input
same,fraction of input in Wash,[11],2e-05 fraction of input
B4,Fraction of Input recovered at pH2.0,[12],4.5e-05 fraction of input
same,Fraction of Input recovered at pH3.5,[12],0.00021 fraction of input
same,Fraction of Input recovered at pH7.0,[12],5.7e-05 fraction of input
same,Recovery Relative to BITI-E7-141,[12],0.12 ratio
same,"Recovery, Total fraction of input",[12],0.00031 fraction of input
same,fold reduction of binding against parental MA-BITI-E7-141,[7],≥ 10 fold
